Common to all, as to assay: SPR
A general note: Surface plasmon resonance follows binding to a sensor surface in real time, without labels.

The target of test [1] is wild-type CRIg Ig V domain, His-tagged (human) (UniProt Q9Y279).
Test [2] shares this target. The source holds these as a separate data set.
In test [3] the target is CRIg-Mut-2 (CRIg Ig V domain mutant K15R/K36R/K62Q/K72R/K110R), His-tagged (human).
Test [4] concerns the target CRIg-Mut-1 (CRIg Ig V domain mutant K15R/K36R/K62R/K72R/K110R), His-tagged (human).

Where two headings read alike, the source gives them in different places.

A word on the Kd: it is the free concentration of one partner at which half of the binding sites on the other are occupied at equilibrium, for simple one-to-one binding. As a reminder, the koff is the rate constant with which the complex falls apart. Low values mean slow dissociation, high ones fast dissociation. What is called kon is the rate constant with which the complex forms. A higher kon goes with faster complex formation. In test [1], “C3b (from UniProt P01024 749-1663; P01024 749-1663) (domain or fragment)” gave a Ka-1 (two-state model, first step, association rate) of 25100 M⁻¹ s⁻¹; a Ka-2 (two-state model, second step, forward rate) of 0.00166 s⁻¹; a Kd of 0.0472 µM; a Kd-1 (two-state model, first step, dissociation rate) of 0.00714 s⁻¹. This substance also yielded a Kd-2 (two-state model, second step, reverse rate) in test [1] of 0.00533 s⁻¹. In test [2], this substance displayed a dissociation constant (Kd) of 0.00729 µM, a koff of 0.000125 s⁻¹ and an on-rate (kon) of 17100 M⁻¹ s⁻¹. In test [3], this substance showed a dissociation constant Kd of 0.0162 µM, an off-rate constant (koff) of 0.000203 s⁻¹ and a kon of 12600 M⁻¹ s⁻¹. In test [4], this substance gave a dissociation constant (Kd) of 0.0252 µM, a dissociation rate constant (koff) of 0.000441 s⁻¹ and a kon of 18200 M⁻¹ s⁻¹.

In test [3], “C3c (from UniProt P01024 23-667; P01024 749-954; P01024 1321-1663) (domain or fragment)” yielded a Ka-1 (two-state model, first step, association rate) of 14800 M⁻¹ s⁻¹; a Ka-2 (two-state model, second step, forward rate) of 0.00262 s⁻¹; a Kd of 1.13 µM; a Kd-1 (two-state model, first step, dissociation rate) of 0.0271 s⁻¹. The Kd-2 (two-state model, second step, reverse rate) in test [3] is 0.00414 s⁻¹. In test [4], this substance displayed a Ka-1 (two-state model, first step, association rate) of 12000 M⁻¹ s⁻¹; a Ka-2 (two-state model, second step, forward rate) of 0.0052 s⁻¹; a Kd of 2.78 µM; a Kd-1 (two-state model, first step, dissociation rate) of 0.0491 s⁻¹. In addition, in test [4], the Kd-2 (two-state model, second step, reverse rate) is 0.00928 s⁻¹.

For the substance “iC3b (from UniProt P01024 23-667; P01024 1321-1663) (domain or fragment)”, in test [1], the Ka-1 (two-state model, first step, association rate) came out at 35800 M⁻¹ s⁻¹; the Ka-2 (two-state model, second step, forward rate) was 0.00463 s⁻¹; the Kd came to 0.0105 µM; the Kd-1 (two-state model, first step, dissociation rate) was determined as 0.0168 s⁻¹. In test [1], this substance displayed a Kd-2 (two-state model, second step, reverse rate) of 0.000105 s⁻¹. In test [2], this substance yielded a Ka-1 (two-state model, first step, association rate) of 16000 M⁻¹ s⁻¹; a Ka-2 (two-state model, second step, forward rate) of 0.00376 s⁻¹; an equilibrium dissociation constant (Kd) of 0.068 µM; a Kd-1 (two-state model, first step, dissociation rate) of 0.0207 s⁻¹. Further, the Kd-2 (two-state model, second step, reverse rate) in test [2] stood at 0.000206 s⁻¹. Moreover, in test [3], the Ka-1 (two-state model, first step, association rate) stood at 10600 M⁻¹ s⁻¹; the Ka-2 (two-state model, second step, forward rate) was 0.00469 s⁻¹; the Kd was 0.0846 µM; the Kd-1 (two-state model, first step, dissociation rate) was determined as 0.0191 s⁻¹. The substance further yielded a Kd-2 (two-state model, second step, reverse rate) in test [3] of 0.000227 s⁻¹. In test [4], this substance showed a Ka-1 (two-state model, first step, association rate) of 7100 M⁻¹ s⁻¹; a Ka-2 (two-state model, second step, forward rate) of 0.00589 s⁻¹; a Kd of 0.115 µM; a Kd-1 (two-state model, first step, dissociation rate) of 0.0209 s⁻¹. This substance showed a Kd-2 (two-state model, second step, reverse rate) in test [4] of 0.000231 s⁻¹.
